From the supplement of paper PMC9112550, “Optimization of the antimicrobial peptide Bac7 by deep mutational scanning” (BMC Biology, 2022) come the findings set out here.

For this data set, the system named is Escherichia coli TOP10. Briefly: shrunken log2 fold change of peptide-encoding DNA abundance (4.5 h post-induction vs induction); higher = less antimicrobial activity (less host growth inhibition). The following applies: time post-induction: 4.5 h; library: site-saturation at positions 5, 18, 19, 20.
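Note: peptides expressed intracellularly from a pBAD plasmid library in pooled LB shake-flask culture, induced with 0.3% L-arabinose, DNA abundance read by NGS, three biological replicates, DESeq2 with apeglm shrinkage.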

Turning to RRIRTRPPRLPRPRPRPQYPPRP, the “shrunken log2 fold change” value was -0.923. As to RRIRTRPPRLPRPRPRPGCMPRP, the “shrunken log2 fold change” value is -0.0219. The value for RRIRQRPPRLPRPRPRPVAFPRP was -0.0706; that for RRIRARPPRLPRPRPRPPIHPRP was -0.11. The value for RRIRDRPPRLPRPRPRPPYVPRP was -0.0635; that for RRIRLRPPRLPRPRPRPNEYPRP was -0.321; that for RRIRKRPPRLPRPRPRPWNVPRP was 0.0194. For the sequence RRIRPRPPRLPRPRPRPHFEPRP, the “shrunken log2 fold change” value amounted to 0.0605. For RRIRKRPPRLPRPRPRPKIKPRP the value was 0.447. With RRIRTRPPRLPRPRPRPWYIPRP, the “shrunken log2 fold change” value was -0.146.

Regarding RRIRIRPPRLPRPRPRPFVNPRP, the “shrunken log2 fold change” value was -0.488. The value for RRIRDRPPRLPRPRPRPEFYPRP was 0.475; that for RRIRQRPPRLPRPRPRPKNNPRP was -0.616.

With RRIRFRPPRLPRPRPRPPARPRP, the “shrunken log2 fold change” value was determined as 0.694.

On to RRIRARPPRLPRPRPRPVKSPRP, for which the “shrunken log2 fold change” value worked out at 0.19.

Turning to RRIRERPPRLPRPRPRPKLTPRP, the “shrunken log2 fold change” value was 0.21. For RRIRWRPPRLPRPRPRPKDQPRP the value was 0.508; for RRIRPRPPRLPRPRPRPGNTPRP, -0.241. In the case of RRIRPRPPRLPRPRPRPRFMPRP, the “shrunken log2 fold change” value was -0.0826. For RRIRRRPPRLPRPRPRPDNCPRP the value was -0.113; for RRIRFRPPRLPRPRPRPMIRPRP, -0.163; for RRIRDRPPRLPRPRPRPHNAPRP, -0.0997. The value for RRIRRRPPRLPRPRPRPIHAPRP was -0.102; that for RRIRNRPPRLPRPRPRPFNGPRP was -0.0926.

For the sequence RRIRFRPPRLPRPRPRPDLFPRP, the “shrunken log2 fold change” value stood at 0.0316.

In the case of RRIRGRPPRLPRPRPRPARVPRP, the “shrunken log2 fold change” value came out at 0.614.

As to RRIRYRPPRLPRPRPRPHYRPRP, the “shrunken log2 fold change” value was -0.433. The value for RRIRVRPPRLPRPRPRPGMPPRP was 0.0671; that for RRIRERPPRLPRPRPRPMCAPRP was 0.000297; that for RRIRARPPRLPRPRPRPKLPPRP was 0.184. The value for RRIRCRPPRLPRPRPRPSLLPRP was -0.386. The value for RRIRIRPPRLPRPRPRPDNFPRP was -0.0215; that for RRIRLRPPRLPRPRPRPLHGPRP was 0.0823; that for RRIRCRPPRLPRPRPRPALYPRP was -0.0755. As for RRIRCRPPRLPRPRPRPCQFPRP, the “shrunken log2 fold change” value was -0.0777.

In the case of RRIRKRPPRLPRPRPRPECKPRP, the “shrunken log2 fold change” value was 0.506.

With RRIRKRPPRLPRPRPRPAFGPRP, the “shrunken log2 fold change” value was found to be 0.564. As to RRIRGRPPRLPRPRPRPIGDPRP, the “shrunken log2 fold change” value turned out to be 0.667. The value for RRIRFRPPRLPRPRPRPTYTPRP was -0.719; that for RRIRTRPPRLPRPRPRPEVFPRP was 0.146; that for RRIRWRPPRLPRPRPRPTDYPRP was 0.233. As for RRIRMRPPRLPRPRPRPVINPRP, the “shrunken log2 fold change” value is -0.305. The value for RRIRERPPRLPRPRPRPCVQPRP was -0.0665; that for RRIRIRPPRLPRPRPRPWRQPRP was 0.0165. The value for RRIRSRPPRLPRPRPRPNCTPRP was -0.531. For RRIRWRPPRLPRPRPRPMTWPRP the value was 2.14; for RRIRTRPPRLPRPRPRPCVEPRP, -0.0492.

With RRIRQRPPRLPRPRPRPGVEPRP, the “shrunken log2 fold change” value was 0.0735.

Regarding RRIRRRPPRLPRPRPRPNTSPRP, the “shrunken log2 fold change” value was -0.116. For RRIRQRPPRLPRPRPRPDWVPRP the value was 0.116; for RRIRPRPPRLPRPRPRPWRKPRP, 0.0228. The value for RRIRNRPPRLPRPRPRPNKIPRP was -0.658; that for RRIRRRPPRLPRPRPRPGSEPRP was 0.00207. The value for RRIRDRPPRLPRPRPRPSREPRP was -0.0011; that for RRIRMRPPRLPRPRPRPMWHPRP was 0.208; that for RRIRHRPPRLPRPRPRPEVDPRP was -0.00884. In the case of RRIRRRPPRLPRPRPRPRISPRP, the “shrunken log2 fold change” value came out at 0.482. The value for RRIRQRPPRLPRPRPRPKFYPRP was -0.206; that for RRIRMRPPRLPRPRPRPAIIPRP was 0.0113; that for RRIRNRPPRLPRPRPRPECVPRP was -0.127. The value for RRIRLRPPRLPRPRPRPVTTPRP was -0.216; that for RRIRMRPPRLPRPRPRPHQCPRP was -0.0247; that for RRIRNRPPRLPRPRPRPIQLPRP was -0.203. For RRIRYRPPRLPRPRPRPHYQPRP the value was -0.522; for RRIRRRPPRLPRPRPRPQYNPRP, -0.224. With RRIRERPPRLPRPRPRPKKIPRP, the “shrunken log2 fold change” value was -0.515.

For RRIRCRPPRLPRPRPRPKIMPRP, the “shrunken log2 fold change” value was -0.622. For RRIRKRPPRLPRPRPRPYSRPRP the value was -0.0735. For RRIRHRPPRLPRPRPRPVRDPRP the value was 0.298. Regarding RRIRFRPPRLPRPRPRPPTIPRP, the “shrunken log2 fold change” value is -0.105. The value for RRIRSRPPRLPRPRPRPTYNPRP was -0.765. RRIRRRPPRLPRPRPRPMVMPRP: the “shrunken log2 fold change” value came out at 0.158. With RRIRYRPPRLPRPRPRPAFCPRP, the “shrunken log2 fold change” value is -0.1. The value for RRIRVRPPRLPRPRPRPMTLPRP was -0.0218. For RRIRKRPPRLPRPRPRPFENPRP the value was 0.167; for RRIRGRPPRLPRPRPRPCHIPRP, -0.028; for RRIRQRPPRLPRPRPRPGNWPRP, -0.0235. For RRIRIRPPRLPRPRPRPAMEPRP the value was 0.0199; for RRIRCRPPRLPRPRPRPEAHPRP, 0.38; for RRIRTRPPRLPRPRPRPIRLPRP, 0.0213. For RRIRDRPPRLPRPRPRPCDEPRP, the “shrunken log2 fold change” value was -0.00174. As for RRIRQRPPRLPRPRPRPAEEPRP, the “shrunken log2 fold change” value was found to be 0.0112. The value for RRIRMRPPRLPRPRPRPMDDPRP was 0.15. The value for RRIRIRPPRLPRPRPRPHKVPRP was -0.0742; that for RRIRMRPPRLPRPRPRPMFTPRP was 0.0379. As for RRIRLRPPRLPRPRPRPIRQPRP, the “shrunken log2 fold change” value is -0.0246. On to RRIRNRPPRLPRPRPRPHKQPRP, for which the “shrunken log2 fold change” value is -0.359. The value for RRIRCRPPRLPRPRPRPSSYPRP was -0.531; that for RRIRMRPPRLPRPRPRPEGWPRP was 3.15. For RRIRKRPPRLPRPRPRPYLTPRP the value was -0.413; for RRIRWRPPRLPRPRPRPRMLPRP, 0.281.

Turning to RRIRGRPPRLPRPRPRPSIAPRP, the “shrunken log2 fold change” value stood at 0.669. For RRIRSRPPRLPRPRPRPFRKPRP the value was -0.176; for RRIRDRPPRLPRPRPRPDMPPRP, -0.0262; for RRIRQRPPRLPRPRPRPECSPRP, -0.0561. The value for RRIRQRPPRLPRPRPRPAGIPRP was 0.0977; that for RRIRERPPRLPRPRPRPQFDPRP was -0.111. For RRIRSRPPRLPRPRPRPWNCPRP the value was -0.223; for RRIRPRPPRLPRPRPRPPDMPRP, 0.507; for RRIRNRPPRLPRPRPRPLNIPRP, -0.389. Consider RRIRSRPPRLPRPRPRPCYHPRP, for which the “shrunken log2 fold change” value is -0.297. For RRIRARPPRLPRPRPRPIGSPRP the value was -0.0508; for RRIRERPPRLPRPRPRPCKIPRP, -0.00331. The value for RRIRTRPPRLPRPRPRPSAPPRP was 0.269; that for RRIRTRPPRLPRPRPRPVGPPRP was -0.006; that for RRIRQRPPRLPRPRPRPRGHPRP was 0.342. The value for RRIRNRPPRLPRPRPRPMQFPRP was -0.466; that for RRIRTRPPRLPRPRPRPEYQPRP was 0.066; that for RRIRTRPPRLPRPRPRPQVLPRP was -0.0479.

RRIRWRPPRLPRPRPRPTKIPRP: the “shrunken log2 fold change” value was found to be 0.0922. For RRIRPRPPRLPRPRPRPCNQPRP the value was -0.0514; for RRIRVRPPRLPRPRPRPYSGPRP, -0.00858. The value for RRIRNRPPRLPRPRPRPTTAPRP was -0.0817; that for RRIRGRPPRLPRPRPRPKCKPRP was 0.51; that for RRIRARPPRLPRPRPRPAACPRP was 0.754.

As for RRIRCRPPRLPRPRPRPQMSPRP, the “shrunken log2 fold change” value was -0.201. The value for RRIRKRPPRLPRPRPRPHQIPRP was 0.0638; that for RRIRVRPPRLPRPRPRPSYDPRP was -0.576. The value for RRIRIRPPRLPRPRPRPGFQPRP was -0.106. The value for RRIRPRPPRLPRPRPRPCACPRP was -0.129; that for RRIRFRPPRLPRPRPRPTEYPRP was -0.423. Consider RRIRFRPPRLPRPRPRPHFHPRP, for which the “shrunken log2 fold change” value was -0.75.

Turning to RRIRIRPPRLPRPRPRPDQRPRP, the “shrunken log2 fold change” value was determined as 0.0228.

For RRIRLRPPRLPRPRPRPCLRPRP, the “shrunken log2 fold change” value was -0.0817.

RRIRCRPPRLPRPRPRPEGVPRP: the “shrunken log2 fold change” value amounted to 2.48.
